Key:
WT MEF EVs = assay: Quantitative LC-MS/MS proteomics of EVs from ISRIB-treated WT MEF cultures; assay type: cell-based, mouse; design: key to ISRIB and DYT Parallel Direction / ISRIB and DYT Parallel Direction, Ctdsp1 / ISRIB and DYT Parallel Direction, Pcdh19 / ISRIB and DYT Parallel Direction, Tspan7 / ISRIB and DYT Parallel Direction, Myo1e / ISRIB and DYT Parallel Direction, Plpp3 / ISRIB and DYT Parallel Direction, Sh3bp4 / ISRIB and DYT Parallel Direction, Dnajc7 / ISRIB and DYT Parallel Direction, Drg1 / ISRIB and DYT Parallel Direction, Maea: YES = protein abundance effect similar to DYT/WT; conditions: EV protein abundance; for WT + ISRIB/WT Cohen's d: ISRIB-treated WT vs WT; for ISRIB and DYT Parallel Direction: WT + ISRIB vs WT, direction compared with DYT/WT
DYT-TOR1A MEF EVs = assay: Quantitative LC-MS/MS proteomics of EVs from drug-treated DYT-TOR1A MEF cultures (ritonavir, salubrinal); assay type: cell-based, mouse; design: key to RTV Corrective Direction / RTV Corrective Direction, Grwd1 / RTV Corrective Direction, Srrm2 / RTV Corrective Direction, Rbm17 / RTV Corrective Direction, Dcaf8 / RTV Corrective Direction, Edil3 / RTV Corrective Direction, Timp3 / RTV Corrective Direction, Heatr3 / RTV Corrective Direction, Brd4 / RTV Corrective Direction, P3h4 / RTV Corrective Direction, Pacsin3 / RTV Corrective Direction, Naa50 / RTV Corrective Direction, Lpar6 / RTV Corrective Direction, Ndrg1 / RTV Corrective Direction, Kntc1 / RTV Corrective Direction, Cdk11b / RTV Corrective Direction, Sumo1 / RTV Corrective Direction, Lsm4 / RTV Corrective Direction, Hmga2 / RTV Corrective Direction, Cstf1 / RTV Corrective Direction, Tes / RTV Corrective Direction, Sbno1 / RTV Corrective Direction, Unc119b / RTV Corrective Direction, Cfdp1 / RTV Corrective Direction, Sec61b: YES = protein abundance effect opposite to DYT/WT; conditions: EV protein abundance; for RTV Corrective Direction: DYT + RTV (ritonavir) vs DYT, direction compared with DYT/WT; for DYT + RTV/DYT Cohen's d: ritonavir (RTV)-treated DYT vs DYT

Row | Molecule | WT + ISRIB/WT Cohen's d (WT MEF EVs) | ISRIB and DYT Parallel Direction (WT MEF EVs) | RTV Corrective Direction (DYT-TOR1A MEF EVs) | DYT + RTV/DYT Cohen's d (DYT-TOR1A MEF EVs)
1 | Col6a1 (protein, UniProt Q04857 20-1025, looked up) Collagen alpha-1(VI) chain: QDIQGSKAIAFQDCPVDLFFVLDTSESVALRLKPYGALVDKVKSFTKRFIDNLRDRYYRCDRNLVWNAGALHYSDEVEIIRGLTRMPSGRDELKASVDAVKYFGKGTYTDCAIKKGLEELLIGGSHLKENKYLIVVTDGHPLEGYKEPCGGLEDAVNEAKHLGIKVFSVAITPDHLEPRLSIIATDHTYRRNFTAADWGHSRDAEEVISQTIDTIVDMIKNNVEQVCCSFECQAARGPPGPRGDPGYEGERGKPGLPGEKGEAGDPGRPGDLGPVGYQGMKGEKGSRGEKGSRGPKGYKGEKGKRGIDGVDGMKGETGYPGLPGCKGSPGFDGIQGPPGPKGDAGAFGMKGEKGEAGADGEAGRPGNSGSPGDEGDPGEPGPPGEKGEAGDEGNAGPDGAPGERGGPGERGPRGTPGVRGPRGDPGEAGPQGDQGREGPVGIPGDSGEAGPIGPKGYRGDEGPPGPEGLRGAPGPVGPPGDPGLMGERGEDGPPGNGTEGFPGFPGYPGNRGPPGLNGTKGYPGLKGDEGEVGDPGEDNNDISPRGVKGAKGYRGPEGPQGPPGHVGPPGPDECEILDIIMKMCSCCECTCGPIDILFVLDSSESIGLQNFEIAKDFIIKVIDRLSKDELVKFEPGQSHAGVVQYSHNQMQEHVDMRSPNVRNAQDFKEAVKKLQWMAGGTFTGEALQYTRDRLLPPTQNNRIALVITDGRSDTQRDTTPLSVLCGADIQVVSVGIKDVFGFVAGSDQLNVISCQGLSQGRPGISLVKENYAELLDDGFLKNITAQICIDKKCPDYTCPITFSSPADITILLDSSASVGSHNFETTKVFAKRLAERFLSAGRADPSQDVRVAVVQYSGQGQQQPGRAALQFLQNYTVLASSVDSMDFINDATDVNDALSYVTRFYREASSGATKKRVLLFSDGNSQGATAEAIEKAVQEAQRAGIEIFVVVVGPQVNEPHIRVLVTGKTAEYDVAFGERHLFRVPNYQALLRGVLYQTVSRKVALG | 0.14 | YES | YES | −1.96
2 | Fgfr1 (protein, UniProt P16092 22-822, looked up) Fibroblast growth factor …: RPAPTLPEQAQPWGVPVEVESLLVHPGDLLQLRCRLRDDVQSINWLRDGVQLVESNRTRITGEEVEVRDSIPADSGLYACVTSSPSGSDTTYFSVNVSDALPSSEDDDDDDDSSSEEKETDNTKPNRRPVAPYWTSPEKMEKKLHAVPAAKTVKFKCPSSGTPNPTLRWLKNGKEFKPDHRIGGYKVRYATWSIIMDSVVPSDKGNYTCIVENEYGSINHTYQLDVVERSPHRPILQAGLPANKTVALGSNVEFMCKVYSDPQPHIQWLKHIEVNGSKIGPDNLPYVQILKTAGVNTTDKEMEVLHLRNVSFEDAGEYTCLAGNSIGLSHHSAWLTVLEALEERPAVMTSPLYLEIIIYCTGAFLISCMLGSVIIYKMKSGTKKSDFHSQMAVHKLAKSIPLRRQVTVSADSSASMNSGVLLVRPSRLSSSGTPMLAGVSEYELPEDPRWELPRDRLVLGKPLGEGCFGQVVLAEAIGLDKDKPNRVTKVAVKMLKSDATEKDLSDLISEMEMMKMIGKHKNIINLLGACTQDGPLYVIVEYASKGNLREYLQARRPPGLEYCYNPSHNPEEQLSSKDLVSCAYQVARGMEYLASKKCIHRDLAARNVLVTEDNVMKIADFGLARDIHHIDYYKKTTNGRLPVKWMAPEALFDRIYTHQSDVWSFGVLLWEIFTLGGSPYPGVPVEELFKLLKEGHRMDKPSNCTNELYMMMRDCWHAVPSQRPTFKQLVEDLDRIVALTSNQEYLDLSIPLDQYSPSFPDTRSSTCSSGEDSVFSHEPLPEEPCLPRHPTQLANSGLKRR | 5.66 | YES | YES | −2.81
3 | Eif4b (protein, UniProt Q8BGD9 1-611, looked up) Eukaryotic translation …: MAASAKKKNKKGKTISLTDFLAEDGGTGGGSTYVPKPVSWADETDDLEGDVSTTWHSNDDDVYRAPPIDRSILPTAPRAAREPNIDRSRLPKSPPYTAFLGNLPYDVTEDSIKDFFRGLNISAVRLPREPSNPDRLKGFGYAEFEDLDSLLSALSLNEESLGNRRIRVDVADQAQDKDRDDRSFGRDRNRDSDKTDTDWRARPTTDSFDDYPPRRGDDSFGDKYRDRYDSDRYRDGYRDGYRDGPRRDMDRYGGRDRYDDRGSRDYDRGYDSRIGSGRRAFGSGYRRDDDYRGGGDRYEDRYDRRDDRSWSSRDDYSRDDYRRDDRGPPQRPRLNLKPRSAPKEDDASASTSQSSRAASIFGGAKPVDTAAREREVEERLQKEQEKLQRQLDEPKLDRRPRERHPSWRSEETQERERSRTGSESSQTGASATSGRNTRRRESEKSLENETLNKEEDCHSPTSKPPKPDQPLKVMPAPPPKENAWVKRSSNPPARSQSSDTEQPSPTSGGGKVAAVQPPEEGPSRKDGNKVDVVGATQGQAGSCSRGPGDGGSRDHWKDLDRKDGKKDQDSRSAPEPKKPEENPASKFSSASKYAALSVDGEDEDEGDDCTE | 3.88 | YES | YES | −1.72
4 | Slc9a1 (protein, UniProt Q61165 1-820, looked up) Sodium/hydrogen exchanger 1: MMLRWSGVWGFHPPRIFPSLLVVVALVGLLPVLRSHGLQHSPTASTIRGSEPPRERSIGDVTTAPSEPLHRPDDHNLTNLIIEHGGKPSRKAFPVLDIDYPHVRTPFEISLWILLACLMKIGFHVIPTISSIVPESCLLIVVGLLVGGLIKGVGETPPFLQSDVFFLFLLPPIILDAGYFLPLRQFTENLGTILIFAVVGTLWNAFFLGGLLYAVCLVGGEQINNIGLLDTLLFGSIISAVDPVAVLAVFEEIHINELLHILVFGESLLNDAVTVVLYHLFEEFASYDSVGISDIFLGFLSFFVVALGGVFVGVVYGVIAAFTSRFTSHIRVIEPLFVFLYSYMAYLSAELFHLSGIMALIASGVVMRPYVEANISHKSHTTIKYFLKMWSSVSETLIFIFLGVSTVAGSHQWNWTFVISTLLFCLIARVLGVLVLTWFINKFRIVKLTPKDQFIIAYGGLRGAIAFSLGYLLDKKHFPMCDLFLTAIITVIFFTVFVQGMTIRPLVDLLAVKKKQETKRSINEEIHTQFLDHLLTGIEDICGHYGHHHWKDKLNRFNKKYVKKCLIAGERSKEPQLIAFYHKMEMKQAIELVESGGMGKIPSAVSTVSMQNIHPKAVTSDRILPALSKDKEEEIRKILRSNLQKTRQRLRSYNRHTLVADPYEEAWNQMLLRRQKARQLEQKITNYLTVPAHKLDSPTLSRARIGSDPLAYEPKADLPVITIDPASPQSPESVDLVNEELKGKVLGLNRGPRVTPEEEEEDEDGIIMIRSKEPSSPGTDDVFTPGSSDSPSSQRIQRCLSDPGPHPEPGEGEPFIPKGQ | 0.44 | YES | YES | −2.60
5 | Ddx3x (protein, UniProt Q62167 2-662, looked up) ATP-dependent RNA helicase …: SHVAVENALGLDQQFAGLDLNSSDNQSGGSTASKGRYIPPHLRNREATKGFYDKDSSGWSSSKDKDAYSSFGSRGDSRGKSSFFGDRGSGSRGRFDDRGRGDYDGIGGRGDRSGFGKFERGGNSRWCDKSDEDDWSKPLPPSERLEQELFSGGNTGINFEKYDDIPVEATGNNCPPHIESFSDVEMGEIIMGNIELTRYTRPTPVQKHAIPIIKEKRDLMACAQTGSGKTAAFLLPILSQIYADGPGEALRAMKENGRYGRRKQYPISLVLAPTRELAVQIYEEARKFSYRSRVRPCVVYGGAEIGQQIRDLERGCHLLVATPGRLVDMMERGKIGLDFCKYLVLDEADRMLDMGFEPQIRRIVEQDTMPPKGVRHTMMFSATFPKEIQMLARDFLDEYIFLAVGRVGSTSENITQKVVWVEEIDKRSFLLDLLNATGKDSLTLVFVETKKGADSLEDFLYHEGYACTSIHGDRSQRDREEALHQFRSGKSPILVATAVAARGLDISNVKHVINFDLPSDIEEYVHRIGRTGRVGNLGLATSFFNERNINITKDLLDLLVEAKQEVPSWLENMAFEHHYKGSSRGRSKSSRFSGGFGARDYRQSSGASSSSFSSSRASSSRSGGGGHGGSRGFGGGGYGGFYNSDGYGGNYNSQGVDWWGN | −1.08 | YES | YES | 2.24
6 | Eef1e1 (protein, UniProt Q9D1M4 2-174, looked up) Eukaryotic translation …: AAAAELRLLEKSLGLKPGNKYSAQGERQIPVLQTNNGPSLMGLSTIATHLVKQASKEHLLGSTAEEKAMVQQWLEFRVTRVDGHSSKEDTQTLLKDLNSYLEDKVYLAGHNITLADILLYYGLHRFIVDLTVQEKEKYLNVSRWFCHIQHYPDIRQHLSSIVFIKNRLYANSH | −3.65 | YES | YES | 16.90
7 | Txnl1 (protein, UniProt O43396 2-289, looked up) Thioredoxin-like protein 1: VGVKPVGSDPDFQPELSGAGSRLAVVKFTMRGCGPCLRIAPAFSSMSNKYPQAVFLEVDVHQCQGTAATNNISATPTFLFFRNKVRIDQYQGADAVGLEEKIKQHLENDPGSNEDTDIPKGYMDLMPFINKAGCECLNESDEHGFDNCLRKDTTFLESDCDEQLLITVAFNQPVKLYSMKFQGPDNGQGPKYVKIFINLPRSMDFEEAERSEPTQALELTEDDIKEDGIVPLRYVKFQNVNSVTIFVQSNQGEEETTRISYFTFIGTPVQATNMNDFKRVVGKKGESH | −0.66 | YES | YES | 1.99

Source: US20260266848A1, “COMPOSITIONS AND METHODS FOR DIAGNOSING AND TREATING DYSTONIA” (Duke University, priority 2023, published 2026)
